According to patent US20040126819A1:

Molecular target: human wild type c-RET expressed in 3T3 fibroblasts (human) (UniProt P07949)
Assay: cell-based or functional assay

Sequence of ^125I-GDNF (human GDNF from PeproTech EC Ltd. or rat GDNF from C. F. Ibanez) (ligand) (P39905 78-211): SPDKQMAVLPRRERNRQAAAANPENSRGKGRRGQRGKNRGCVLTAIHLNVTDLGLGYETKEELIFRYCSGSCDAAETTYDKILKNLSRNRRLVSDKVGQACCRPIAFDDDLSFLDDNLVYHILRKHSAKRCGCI
Sequence of human wild type c-RET expressed in 3T3 fibroblasts (human) (P07949 29-1114): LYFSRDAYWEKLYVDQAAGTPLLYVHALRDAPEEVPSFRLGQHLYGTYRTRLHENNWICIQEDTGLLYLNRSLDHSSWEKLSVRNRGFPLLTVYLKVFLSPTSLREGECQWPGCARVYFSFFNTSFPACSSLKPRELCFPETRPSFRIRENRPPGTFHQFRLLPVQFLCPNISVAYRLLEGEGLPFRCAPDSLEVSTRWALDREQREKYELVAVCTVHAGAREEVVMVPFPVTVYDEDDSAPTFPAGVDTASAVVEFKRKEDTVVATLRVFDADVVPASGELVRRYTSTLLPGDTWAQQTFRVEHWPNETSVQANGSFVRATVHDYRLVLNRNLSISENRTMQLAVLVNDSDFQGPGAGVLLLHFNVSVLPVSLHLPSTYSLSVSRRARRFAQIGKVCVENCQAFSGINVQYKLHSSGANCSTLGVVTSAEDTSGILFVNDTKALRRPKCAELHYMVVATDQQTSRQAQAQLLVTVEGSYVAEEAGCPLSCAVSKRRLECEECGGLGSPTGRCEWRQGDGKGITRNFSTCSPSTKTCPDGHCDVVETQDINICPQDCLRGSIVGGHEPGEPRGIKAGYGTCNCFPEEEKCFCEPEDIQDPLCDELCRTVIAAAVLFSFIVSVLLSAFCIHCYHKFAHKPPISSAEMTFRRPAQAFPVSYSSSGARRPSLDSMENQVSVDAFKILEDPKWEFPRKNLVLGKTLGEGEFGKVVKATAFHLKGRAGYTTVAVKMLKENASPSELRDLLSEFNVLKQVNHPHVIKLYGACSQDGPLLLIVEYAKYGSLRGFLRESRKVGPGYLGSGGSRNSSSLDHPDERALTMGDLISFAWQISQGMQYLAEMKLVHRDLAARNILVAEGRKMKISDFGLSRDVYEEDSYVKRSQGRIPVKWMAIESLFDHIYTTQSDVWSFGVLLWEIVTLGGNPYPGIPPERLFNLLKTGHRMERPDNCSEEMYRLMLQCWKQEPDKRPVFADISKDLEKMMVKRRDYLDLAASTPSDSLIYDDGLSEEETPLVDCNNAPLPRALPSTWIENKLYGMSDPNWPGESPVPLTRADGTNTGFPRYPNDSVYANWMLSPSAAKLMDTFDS

tyrosine phosphorylation of c-RET in c-ret-3T3 cells, time course at 50 ng/ml GDNF: 5 min
tyrosine phosphorylation of the 160 kD c-RET isoform in c-ret-3T3 cells, dose-response, 5 min: > 25 ng/mL
Substance: ^125I-GDNF (human GDNF from PeproTech EC Ltd. or rat GDNF from C. F. Ibanez) (ligand)
